Data published in US11278600B2, “Human alpha-galactosidase variants” (Codexis, Inc., priority 2014, dated 2022).
Changes are numbered by the printed parent chain.

Tests used:
Assay type in all cases: biochemical
[1] = HTP-analysis of supernatants pretreated with acid (MUGal hydrolysis); conditions: challenge at pH 4.2; activity of the variant/activity of Rd2BB (SEQ ID NO: 10); yeast supernatant
Procedure, shortened: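 MUGal hydrolysis was tracked by fluorescence (Ex 355 nm, Em 448 nm) after a 30-180 min reaction at 37° C. in pH 4.8 McIlvaine/citrate buffer, stopped with 1 M sodium carbonate. Beforehand, yeast (INVSc1) culture supernatants carrying GLA variants were held 1-3 h at 37° C. in acidic McIlvaine buffer, pH 3.3-4.3.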

[2] = HTP-analysis of yeast culture supernatants, no challenge (MUGal hydrolysis); conditions: activity of the variant/activity of Rd2BB (SEQ ID NO: 10), yeast supernatant
Procedure, shortened: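 Activity read as 4-methylumbelliferyl α-D-galactopyranoside hydrolysis: fluorescence (355/448 nm) after sodium carbonate stop, following 30-180 min at 37° C with 2 mM MUGal stock at pH 4.6–4.8. Enzyme source is unchallenged culture supernatant of INVSc1 yeast expressing GLA variants, grown 66-84 h at 30° C.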

[3] = HTP-analysis of supernatants pretreated with base (MUGal hydrolysis); conditions: challenge at pH 7.6; activity of the variant/activity of Rd2BB (SEQ ID NO: 10); yeast supernatant
Procedure, shortened: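 GLA variants secreted from yeast INVSc1; culture supernatants pre-incubated with McIlvaine buffer pH 7.0–8.2 or 200 mM bicarbonate pH 9.1–9.7 at 37° C. for 1–18 h. Residual activity: MUGal (4 mM stock) hydrolysis at pH 4.3–4.8, 37° C., 30–180 min, carbonate quench; fluorescence Ex 355/Em 448 nm.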

B1: 202 (protein)
chain: LDNGLARTPTMGWLHWERFMCNLDCQEEPDSCISEKLFMEMAELMVSEGWKDAGYEYLAIDDCWMAPQRDSEGRLQADPQRFPHGIRQLANYVHSKGLKLGIYADVGNKTCAGFPGSFGYYDIDAQTFADWGVDLLKFDGCYCDSLENLADGYKHMSLALNRTGRSIVYSCEWPLYMWPFQKPNYTEIRQYCNHWRNFADIDDSWASIKSILDWTSFNQERIVDVAGPGGWNDPDMLVIGNFGLSWNQQVTQMALWAIMAAPLFMSNDLRHISPQAKALLQDKDVIAINQDPLGKQGYQLRQGDNFEVWERPLSGLAWAVAMINRQEIGGPRSYTIAVASLGKGVACNPACFITQLLPVKRKLGFYEWTSRLRSHINPTGTVLLQLENTMQMSKDLLL
modifications: Synthetic Polypeptide sequence of Variant No. 202 of mature Human GLA
Relative Activity of GLA Variants After Challenge at pH 4.2 [1]: + (+ = 0.5 to 1.5 relative activity over Rd2BB (SEQ ID NO: 10))
Relative Activity of GLA Variants After No Challenge (NC) [2]: + (+ = 0.5 to 1.5 relative activity over Rd2BB (SEQ ID NO: 10))
Relative Activity of GLA Variants After Challenge at pH 7.6 [3]: + (+ = 0.5 to 1.5 relative activity over Rd2BB (SEQ ID NO: 10))

B2: 206 (protein)
chain: B1 chain with A59C, E367N, K394L, D395K, L396D
modifications: Synthetic Polypeptide sequence of Variant No. 206
Relative Activity of GLA Variants After Challenge at pH 4.2 [1]: +++ (+++ = >2.5 relative activity over Rd2BB (SEQ ID NO: 10))
Relative Activity of GLA Variants After No Challenge (NC) [2]: +++ (+++ = >2.5 relative activity over Rd2BB (SEQ ID NO: 10))
Relative Activity of GLA Variants After Challenge at pH 7.6 [3]: +++ (+++ = >2.5 relative activity over Rd2BB (SEQ ID NO: 10))

B3: 209 (protein)
chain: B1 chain with A59C, E367P, T369D
modifications: Synthetic Polypeptide sequence of Variant No. 209 of mature Human GLA
Relative Activity of GLA Variants After Challenge at pH 4.2 [1]: + (+ = 0.5 to 1.5 relative activity over Rd2BB (SEQ ID NO: 10))
Relative Activity of GLA Variants After No Challenge (NC) [2]: + (+ = 0.5 to 1.5 relative activity over Rd2BB (SEQ ID NO: 10))
Relative Activity of GLA Variants After Challenge at pH 7.6 [3]: + (+ = 0.5 to 1.5 relative activity over Rd2BB (SEQ ID NO: 10))

B4: 210 (protein)
chain: B1 chain with A59C, F365L, E367N
modifications: Synthetic Polypeptide sequence of Variant No. 210 of mature Human GLA
Relative Activity of GLA Variants After Challenge at pH 4.2 [1]: ++ (++ = 1.5 to 2.5 relative activity over Rd2BB (SEQ ID NO: 10))
Relative Activity of GLA Variants After No Challenge (NC) [2]: ++ (++ = 1.5 to 2.5 relative activity over Rd2BB (SEQ ID NO: 10))
Relative Activity of GLA Variants After Challenge at pH 7.6 [3]: ++ (++ = 1.5 to 2.5 relative activity over Rd2BB (SEQ ID NO: 10))

B5: 203 (protein)
chain: B1 chain with A59C, E367A, T369D
modifications: Synthetic Polypeptide sequence of Variant No. 203 of mature Human GLA
Relative Activity of GLA Variants After Challenge at pH 4.2 [1]: ++ (++ = 1.5 to 2.5 relative activity over Rd2BB (SEQ ID NO: 10))
Relative Activity of GLA Variants After No Challenge (NC) [2]: ++ (++ = 1.5 to 2.5 relative activity over Rd2BB (SEQ ID NO: 10))
Relative Activity of GLA Variants After Challenge at pH 7.6 [3]: +++ (+++ = >2.5 relative activity over Rd2BB (SEQ ID NO: 10))

B6: 204 (protein)
chain: B1 chain with A59C, E367D
modifications: Synthetic Polypeptide sequence of Variant No. 204 of mature Human GLA
Relative Activity of GLA Variants After Challenge at pH 4.2 [1]: + (+ = 0.5 to 1.5 relative activity over Rd2BB (SEQ ID NO: 10))
Relative Activity of GLA Variants After No Challenge (NC) [2]: + (+ = 0.5 to 1.5 relative activity over Rd2BB (SEQ ID NO: 10))
Relative Activity of GLA Variants After Challenge at pH 7.6 [3]: + (+ = 0.5 to 1.5 relative activity over Rd2BB (SEQ ID NO: 10))

B7: 211 (protein)
chain: B1 chain with A59C, F365L, E367N, I376V
modifications: Synthetic Polypeptide sequence of Variant No. 211 of mature Human GLA
Relative Activity of GLA Variants After Challenge at pH 4.2 [1]: ++ (++ = 1.5 to 2.5 relative activity over Rd2BB (SEQ ID NO: 10))
Relative Activity of GLA Variants After No Challenge (NC) [2]: ++ (++ = 1.5 to 2.5 relative activity over Rd2BB (SEQ ID NO: 10))
Relative Activity of GLA Variants After Challenge at pH 7.6 [3]: ++ (++ = 1.5 to 2.5 relative activity over Rd2BB (SEQ ID NO: 10))

B8: 207 (protein)
chain: B1 chain with A59C, E367N, R373K
modifications: Synthetic Polypeptide sequence of Variant No. 207 of mature Human GLA
Relative Activity of GLA Variants After Challenge at pH 4.2 [1]: +++ (+++ = >2.5 relative activity over Rd2BB (SEQ ID NO: 10))
Relative Activity of GLA Variants After No Challenge (NC) [2]: ++ (++ = 1.5 to 2.5 relative activity over Rd2BB (SEQ ID NO: 10))
Relative Activity of GLA Variants After Challenge at pH 7.6 [3]: +++ (+++ = >2.5 relative activity over Rd2BB (SEQ ID NO: 10))

B9: 205 (protein)
chain: B1 chain with A59C, E367D, T369D, K394L, D395K, L396D
modifications: Synthetic Polypeptide sequence of Variant No. 205
Relative Activity of GLA Variants After Challenge at pH 4.2 [1]: ++ (++ = 1.5 to 2.5 relative activity over Rd2BB (SEQ ID NO: 10))
Relative Activity of GLA Variants After No Challenge (NC) [2]: ++ (++ = 1.5 to 2.5 relative activity over Rd2BB (SEQ ID NO: 10))
Relative Activity of GLA Variants After Challenge at pH 7.6 [3]: ++ (++ = 1.5 to 2.5 relative activity over Rd2BB (SEQ ID NO: 10))

B10: 208 (protein)
chain: B1 chain with A59C, E367N, R373K, I376V
modifications: Synthetic Polypeptide sequence of Variant No. 208 of mature Human GLA
Relative Activity of GLA Variants After Challenge at pH 4.2 [1]: +++ (+++ = >2.5 relative activity over Rd2BB (SEQ ID NO: 10))
Relative Activity of GLA Variants After No Challenge (NC) [2]: ++ (++ = 1.5 to 2.5 relative activity over Rd2BB (SEQ ID NO: 10))
Relative Activity of GLA Variants After Challenge at pH 7.6 [3]: +++ (+++ = >2.5 relative activity over Rd2BB (SEQ ID NO: 10))

B11: 212 (protein)
chain: B1 chain with A59C, F365L, E367N, R373K, I376V
modifications: Synthetic Polypeptide sequence of Variant No. 212 of mature Human GLA
Relative Activity of GLA Variants After Challenge at pH 4.2 [1]: ++ (++ = 1.5 to 2.5 relative activity over Rd2BB (SEQ ID NO: 10))
Relative Activity of GLA Variants After No Challenge (NC) [2]: ++ (++ = 1.5 to 2.5 relative activity over Rd2BB (SEQ ID NO: 10))
Relative Activity of GLA Variants After Challenge at pH 7.6 [3]: ++ (++ = 1.5 to 2.5 relative activity over Rd2BB (SEQ ID NO: 10))

B12: 213 (protein)
chain: B1 chain with H15Q, A59C
modifications: Synthetic Polypeptide sequence of Variant No. 213 of mature Human GLA
Relative Activity of GLA Variants After Challenge at pH 4.2 [1]: − (− = <0.5 relative activity over Rd2BB (SEQ ID NO: 10))
Relative Activity of GLA Variants After No Challenge (NC) [2]: + (+ = 0.5 to 1.5 relative activity over Rd2BB (SEQ ID NO: 10))
Relative Activity of GLA Variants After Challenge at pH 7.6 [3]: − (− = <0.5 relative activity over Rd2BB (SEQ ID NO: 10))
